According to patent publication US20060073572A1, “Cytokine structurally related to IL-17” (The Johns Hopkins University, priority 2001, published 2006):
Entries after “also recorded” stand apart in the source; their conditions may differ.

How the values were obtained:
p38 = test: Western blotting of p38 activation in ML-1-stimulated cells; format: cell-based, human; details: any time point, FIG. 6A (PBECs)
Protocol: FIGS. 6A-6D. Kinetic activation of ERK1/2 by ML-1 in PBECs (FIG. 6A) and HUVECs (FIG. 6B). The cells were incubated with or without ML-1 (100 ng/ml) for different time points as indicated. Western blotting analysis was performed by using antibodies against different MAP kinases as described in Example 8. FIGS. 6C and 6D. Effect of PD98059 on ML-1-induced phosphorylation of ERK1/2 in PBECs (FIG. 6C) and HUVECs (FIG. 6D). The cells were preincubated with PD98059 ([…]) or DMSO vehicle control for 1 hour, followed by stimulation of PBECs and HUVECs with medium or ML-1 for 20 minutes or 10 minutes, respectively. The results shown are representative of three separate experiments.
For analysis of activation of MAP kinases, PBECs were treated with IL-17 (100 ng/ml) for various time periods, with or without the MEK 1/2 inhibitor PD98059 ([…]; Calbiochem, La Jolla, Calif.) (15), the p38 inhibitor SB202190 (0.5-10 μM; ref. 16), or a vehicle control, DMSO (Me2SO) for 1 hour. […] Following the treatment, the cells were washed with ice-cold PBS. […]
Immunoreactive proteins were detected using antibodies against various kinases and phosphorylated kinases. […] Western blotting detection reagents (Amersham) and Hyper ECL luminescence detection film (Amersham) were used. […]

IL-8 = IL-8 expression in PBECs (ELISA, RT-PCR); format: cell-based, human; details: ML-1 10 and 100 ng/ml, 24 and 48 hours, ELISA
Protocol: FIG. 5. Analysis of IL-6 (FIG. 5A) and IL-8 (FIG. 5B) expression in primary bronchial epithelial cells (PBECs) and human umbilical vein endothelial cells (HUVECs) stimulated by ML-1. The IL-6 and IL-8 protein release in the supernatant was determined by ELISA as described in Example 8. The results were expressed as mean+SD (n=6). *p<0.05 was considered significant vs control.
FIG. 7A-7D. Effect of PD98059 on IL-6 (FIG. 7A) and IL-8 (FIG. 7B) protein production in PBECs and HUVECs. The cells were preincubated with varying concentrations of PD98059, SB202190, or DMSO vehicle control for 1 hour, followed by stimulation with ML-1 (100 ng/ml) for 24 hours. The results are expressed as the mean+SD (n=6). *P<0.05 when compared to cultures without the addition of PD98059. FIGS. 7C and 7D. Semi-quantitative analysis of gene expression for IL-6 (FIG. 7C) and IL-8 (FIG. 7D) by RT-PCR. The cells were preincubated as described above and treated with ML-1 for 4 hours. RT-PCR was performed as described in Example 8. The results shown are representative of three separate experiments.
Primary bronchial epithelial cells (PBECs) were purchased from Clonetics (San Diego, Calif.) and cultured in bronchial epithelial basal medium (Clonetics) containing 0.5 ng/ml human recombinant epidermal growth factor (EGF), 52 mg/ml bovine pituitary extract, 0.1 mg/ml retinoic acid, 0.5 mg/ml hydrocortisone, 5 mg/ml insulin, 10 mg/ml transferrin, 0.5 mg/ml epinephrine, 6.5 ng/ml triiodothyronine, […] gentamicin, and 50 pg/ml amphotericin-B (Clonetics). […]
The amplification reaction was performed for 23 cycles with denaturation at 94° C. for 45 seconds, annealing at 56° C. for 45 seconds, and extension at 72° C. for 45 seconds. PCR products were detected by ethidium bromide staining and normalized by the intensity of an amplified housekeeping gene, G3PDH (see above). […] IL-6 and IL-8 protein levels in the collected supernatants were determined with a commercially available ELISA kit (Biosource, Camarillo, Calif.) according to the manufacturer's instructions.

B1: ML-1: new member of the IL-17 cytokine family, SEQ ID NO:2; His-tagged recombinant protein expressed in COS-7 cells and affinity purified (protein, listed as Homo sapiens)
chain: MKLDIGIINENQRVSMSRNIESRSTSPWNYTVTWDPNRYPSEVVQAQCRNLGCINAQGKEDISMNSVPIQQETLVVRRKHQGCSVSFQLEKVLVTVGCTCVTPVIHHVQ
modifications: His tag
p38
  activation of p38 kinase: No activation
IL-8
  IL-8 production: time-dependent increase; also recorded: significantly induced
